Measured values from paper PMC4186855, “A Soybean C2H2-Type Zinc Finger Gene GmZF1 Enhanced Cold Tolerance in Transgenic Arabidopsis”.

T1: GmZF1 (GST fusion) (Glycine max (soybean), UniProt Q4FH86 1-172)
T1 sequence: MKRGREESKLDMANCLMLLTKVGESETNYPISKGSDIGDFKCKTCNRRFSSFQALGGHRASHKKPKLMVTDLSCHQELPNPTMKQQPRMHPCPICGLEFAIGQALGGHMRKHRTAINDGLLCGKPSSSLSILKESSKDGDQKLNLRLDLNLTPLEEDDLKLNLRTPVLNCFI

B1: E1 (wild-type EP1S, 4 copies) (dsDNA)
DNA 1: TTGACAGTGTCACTTGACAGTGTCACTTGACAGTGTCACTTGACAGTGTCAC
DNA 2: GTGACACTGTCAAGTGACACTGTCAAGTGACACTGTCAAGTGACACTGTCAA
B2: E2 (mutant EP1S, base substitution) (dsDNA)
DNA 1: TTCAGAGTGTCACTTCAGAGTGTCACTTCAGAGTGTCACTTCAGAGTGTCAC
DNA 2: GTGACACTCTGAAGTGACACTCTGAAGTGACACTCTGAAGTGACACTCTGAA

Target: T1, GmZF1 (GST fusion)
Assay: EMSA; 20 µL binding buffer with 32P-labelled probe, glycerine and 0.2 µg purified protein; 6% polyacrylamide gel in TBE (printed as 0.53, probably 0.5x); salt, pH and temperature not stated
Settings: protein: recombinant; tags: GST (pGEX-4T-1); label: 32P

Row | Binder | binding result
1 | B1 | binds
2 | B2 | binds
